Results from article doi:10.64898/2025.12.14.694184 (bioRxiv, 2025).

B1: human TorsinA-StrepTagII-FLAG-StrepTagII (enzyme, UniProt O14656 21-332, looked up)
chain: VEPISLGLALAGVLTGYIYPRLYCLFAECCGQKRSLSREALQKDLDDNLFGQHLAKKIILNAVFGFINNPKPKKPLTLSLHGWTGTGKNFVSKIIAENIYEGGLNSDYVHLFVATLHFPHASNITLYKDQLQLWIRGNVSACARSIFIFDEMDKMHAGLIDAIKPFLDYYDLVDGVSYQKAMFIFLSNAGAERITDVALDFWRSGKQREDIKLKDIEHALSVSVFNNKNSGFWHSSLIDRNLIDYFVPFLPLEYKHLKMCIRVEMQSRGYEIDEDIVSRVAEEMTFFPKEERVFSDKGCKTVFTKLDYYYDD
B2: mouse CLCC1 N-terminal domain dimer (CLCC1-NTD-6×His) (domain or fragment, UniProt Q99LI2 19-184, looked up)
chain: HDDDWIDPTDMLNYDAASGTMRKSQVRSGTSEKKEVSPDSSEAEELSDCLHRLDSLTHKVDSCEKKKMKDYESQSNPVFRRYLNKILIEAGKLGLPDENKVEMRYDAEILLSRQTLLEIQKFLSGEEWKPGALDDALSDILINFKCHDSEAWKWQFEDYFGVDPYN
modifications: inter-molecular disulfide bonds in the dimer

What was measured:
native gel or EMSA = biological target: the molecule itself; assay: native gel or EMSA
non-reducing SDS-PAGE = biological target: the molecule itself; assay: non-reducing SDS-PAGE
[1] = biological target: B1; assay: pull-down

## B1
Native gel or EMSA
  binding result: binds

## B2
non-reducing SDS-PAGE
  stoichiometry N: 2
[1]
  binding result: binds
